For this test, the target named is C. jejuni outer membrane channel CmeC (C. jejuni) (UniProt Q8RTE3). As to the kind of experiment: crystal structure.

As a reminder, the stoichiometry N is a count of units in the complex or per binding partner. “C. jejuni outer membrane channel CmeC (from UniProt Q8RTE3 1-492) (natural protein)” yielded a stoichiometry N of 3.

For the origin of these results see paper PMC4755347.
